In US20210261937:

Legend:
[1] = target: bdSUMO^Mut1-MBP fusion protein
[2] = target: bdSUMO Mut15-MBP fusion protein
[3] = target: bdSUMO Mut11-MBP fusion protein
[4] = target: bdSUMO Mut12-MBP fusion protein
[5] = target: bdSUMO-MBP fusion protein
[6] = target: scSUMO-MBP fusion protein
[7] = target: hsSUMO2-MBP fusion protein
[8] = target: bdSUMO Mut10-MBP fusion protein
[9] = target: bdSUMO Mut8-MBP fusion protein
[10] = target: bdSUMO D67K-MBP fusion protein
[11] = target: bdSUMO Mut14-MBP fusion protein
[12] = target: bdSUMO Mut13-MBP fusion protein
[13] = target: scSUMO-MBP fusion protein with the bdSUMO^Mut1 exchanges
[14] = target: scSUMO-MBP fusion protein with the bdSUMO^Mut11 exchanges
[15] = target: hsSUMO2-MBP fusion protein with the bdSUMO^Mut11 exchanges
[16] = target: hsSUMO2-MBP fusion protein with the bdSUMO^Mut1 exchanges

| Protein | cleavage of the SUMO fusion protein [1] | cleavage of the SUMO fusion protein [2] | cleavage of the SUMO fusion protein [3] | cleavage of the SUMO fusion protein [4] | cleavage of the SUMO fusion protein [5] [% cleavage] | cleavage of the SUMO fusion protein [6] | cleavage of the SUMO fusion protein [7] | cleavage of the SUMO fusion protein [8] | cleavage of the SUMO fusion protein [9] | cleavage of the SUMO fusion protein [10] | cleavage of the SUMO fusion protein [11] | cleavage of the SUMO fusion protein [12] | cleavage of SUMO-MBP fusion, 1 h at 25 °C (FIG. 14) [13] | cleavage of SUMO-MBP fusion, 1 h at 25 °C (FIG. 14) [14] | cleavage of SUMO-MBP fusion, 1 h at 25 °C (FIG. 14) [15] | cleavage of SUMO-MBP fusion, 1 h at 25 °C (FIG. 14) [16] | protease concentration required to efficiently cleave 100 µM cognate substrate, 1 h at 0 °C [5] | protease concentration required to efficiently cleave 100 µM cognate substrate, 1 h at 0 °C [6] |
| --- | --- | --- | --- | --- | --- | --- | --- | --- | --- | --- | --- | --- | --- | --- | --- | --- | --- | --- |
| bdSENP1^MutH (protein) PFVPLTDEDEDNVRHALGGRKPSETLSVHEASAIVITREILQCLNDKEWLNDEVINLYLELLKERELREPNKFLKCHFFNTFFYKKLINGYDYKSVREWTTMRKLGYNLIDCDKIFVPIHKDVHWCLAVINIKEKKFQYLDSLGYMDMKALRILAKYLVDEVKDKSGKQIDVHAWKQEGVQNLPLQENGWDCGMFMLKYIDFYSRDMELVFGQKHMSYFRRRTAKEILDLKAG | 100 % cleavage | 100 % cleavage | 100 % cleavage | 100 % cleavage | < 25 | resistant | resistant | 100 % cleavage | < 75 % cleavage | < 75 % cleavage | 100 % cleavage | 100 % cleavage |  |  |  |  |  |  |
| bdSENP1^MutG (protein) PFVPLTDEDEDNVRHALGGRKSSETLSVHEASHIVITREILQCLNDKEWLNDEVINLYLELLKERELREPNKFLKCHFFNTFFYKKLINGGYDYKSVRRWTTVKLGYNLIDCDKIFVPIHKDVHWCLAVINIKEKKFQYLDSLGYMDMKALRILAKYLVDEVKDKSGKQIDVHAWKQEGVQNLPLQENGWDCGMFMLKYIDFYSRDMELVFGQKHMSYFRRRTAKEILDLKAG | 100 % cleavage | < 75 % cleavage | < 75 % cleavage | < 50 % cleavage | < 50 | < 25 % cleavage | 100 % cleavage | 100 % cleavage | < 25 % cleavage | < 75 % cleavage | < 50 % cleavage | < 75 % cleavage |  |  |  |  |  |  |
| hsSENP2 (protein) EFPEITEEMEKEIKNVFRNGNQDEVLSEAFRLTITRKDIQTLNHLNWLNDEIINFYMNMLMERSKEKGLPSVHAFNTFFFTKLKTAGYQAVKRWTKKVDVFSVDILLVPIHLGVHWCLAVVDFRKKNITYYDSMGGINNEACRILLQYLKQESIDKKRKEFDTNGWQLFSKKSQEIPQQMNGSDCGMFACKYADCITKDRPINFTQQHMPYFRKRMVWEILHRKLL | resistant | resistant | resistant | resistant | < 50 | 100 % cleavage | 100 % cleavage | resistant | resistant | resistant | resistant | resistant | allowed cleavage resistance against Ulp1, SUMOstar protease, hsSENP2 and bdSENP1 | allowed cleavage resistance against Ulp1, SUMOstar protease, hsSENP2 and bdSENP1 | allowed cleavage resistance against Ulp1, SUMOstar protease, hsSENP2 and bdSENP1 | allowed cleavage resistance against Ulp1, SUMOstar protease, hsSENP2 and bdSENP1 |  |  |
| bdSENP1^MutJ (protein) PFVPLTDEDEDNVRHALGGRKESETLSVHEASSIVITREILQCLNDKEWLNDEVINLYLELLKERELREPNKFLKCHFFNTFFYKKLINGGYDYKSVRSWTTTRKLGYNLIDCDKIFVPIHKDVHWCLAVINIKEKKFQYLDSLGYMDMKALRILAKYLVDEVKDKSGKQIDVHAWKQEGVQNLPLQENGWDCGMFMLKYIDFYSRDMELVFGQKHMSYFRRRTAKEILDLKAG | 100 % cleavage | 100 % cleavage | 100 % cleavage | < 50 % cleavage | < 50 | < 25 % cleavage | < 50 % cleavage | 100 % cleavage | < 50 % cleavage | 100 % cleavage | < 50 % cleavage | 100 % cleavage |  |  |  |  |  |  |
| bdSENP1^MutK (protein) PFVPLTDEDEDNVRHALGGRKVSETLSVHEASQIVITREILQCLNDKEWLNDEVINLYLELLKERELREPNKFLKCHFFNTFFYKKLINGGYDYKSVRVWTTGRKLGYNLIDCDKIFVPIHKDVHWCLAVINIKEKKFQYLDSLGYMDMKALRILAKYLVDEVKDKSGKQIDVHAWKQEGVQNLPLQENGWDCGMFMLKYIDFYSRDMELVFGQKHMSYFRRRTAKEILDLKAG | 100 % cleavage | 100 % cleavage | 100 % cleavage | 100 % cleavage | < 50 | resistant | resistant | 100 % cleavage | < 75 % cleavage | 100 % cleavage | 100 % cleavage | 100 % cleavage |  |  |  |  |  |  |
| bdSENP1 from B. distachyon (protein) PFVPLTDEDEDNVRHALGGRKRSETLSVHEASNIVITREILQCLNDKEWLNDEVINLYLELLKERELREPNKFLKCHFFNTFFYKKLINGGYDYKSVRRWTTKRKLGYNLIDCDKIFVPIHKDVHWCLAVINIKEKKFQYLDSLGYMDMKALRILAKYLVDEVKDKSGKQIDVHAWKQEGVQNLPLQENGWDCGMFMLKYIDFYSRDMELVFGQKHMSYFRRRTAKEILDLKAG | < 25 % cleavage | < 25 % cleavage | < 25 % cleavage | < 25 % cleavage | 100 | < 50 % cleavage | < 50 % cleavage | < 25 % cleavage | < 25 % cleavage | < 25 % cleavage | < 25 % cleavage | < 50 % cleavage | allowed cleavage resistance against Ulp1, SUMOstar protease, hsSENP2 and bdSENP1 | allowed cleavage resistance against Ulp1, SUMOstar protease, hsSENP2 and bdSENP1 | allowed cleavage resistance against Ulp1, SUMOstar protease, hsSENP2 and bdSENP1 | allowed cleavage resistance against Ulp1, SUMOstar protease, hsSENP2 and bdSENP1 | Around 15-50 nM of these two proteases were required to efficiently cleave the cognate substrate |  |
| bdSENP1^Muti (protein) PFVPLTDEDEDNVRHALGGRKKSETLSVHEASHIVITREILQCLNDKEWLNDEVINLYLELLKERELREPNKFLKCHFFNTFFYKKLINGGYDYKSVREWTTRRKLGYNLIDCDKIFVPIHKDVHWCLAVINIKEKKFQYLDSLGYMDMKALRILAKYLVDEVKDKSGKQIDVHAWKQEGVQNLPLQENGWDCGMFMLKYIDFYSRDMELVFGQKHMSYFRRRTAKEILDLKAG | 100 % cleavage | < 50 % cleavage | < 50 % cleavage | < 50 % cleavage | < 25 | resistant | resistant | < 50 % cleavage | < 25 % cleavage | < 25 % cleavage | < 50 % cleavage | < 75 % cleavage |  |  |  |  |  |  |
| Ulp1 from S. cerevisiae (protein) LVPELNEKDDDQVQKALASRENTQLMNRDNIEITVRDFKTLAPRRWLNDTIIEFFMKYIEKSTPNTVAFNSFFYTNLSERGYQGVRRWMKRKKTQIDKLDKIFTPINLNQSHWALGIIDLKKKTIGYVDSLSNGPNAMSFAILTDLQKYVMEESKHTIGEDFDLIHLDCPQQPNGYDCGIYVCMNTLYGSADAPLDFDYKDAIRMRRFIAHLILTDALK | resistant | resistant | resistant | resistant | 100 | 100 % cleavage | < 25 % cleavage | resistant | resistant | resistant | resistant | resistant | allowed cleavage resistance against Ulp1, SUMOstar protease, hsSENP2 and bdSENP1 | allowed cleavage resistance against Ulp1, SUMOstar protease, hsSENP2 and bdSENP1 | allowed cleavage resistance against Ulp1, SUMOstar protease, hsSENP2 and bdSENP1 | allowed cleavage resistance against Ulp1, SUMOstar protease, hsSENP2 and bdSENP1 |  | Around 15-50 nM of these two proteases were required to efficiently cleave the cognate substrate |
